Test results from IntAct's records for PubMed 28164238.

B1: T-box transcription factor TBX5 (Mus musculus), P70326 (parent)
chain: MADTDEGFGLARTPLEPDSKDRSCDSKPESALGAPSKSPSSPQAAFTQQGMEGIKVFLHERELWLKFHEVGTEMIITKAGRRMFPSYKVKVTGLNPKTKYILLMDIVPADDHRYKFADNKWSVTGKAEPAMPGRLYVHPDSPATGAHWMRQLVSFQKLKLTNNHLDPFGHIILNSMHKYQPRLHIVKADENNGFGSKNTAFCTHVFPETAFIAVTSYQNHKITQLKIENNPFAKGFRGSDDLELHRMSRMQSKEYPVVPRSTVRHKVTSNHSPFSSETRALSTSSNLGSQYQCENGVSGPSQDLLPPPNPYPLAQEHSQIYHCTKRKDEECSSTEHPYKKPYMETSPSEEDTFYRSGYPQQQGLSTSYRTESAQRQACMYASSAPPSEPVPSLEDISCNTWPSMPSYSSCTVTTVQPMDRLPYQHFSAHFTSGPLVPRLAGMANHGSPQLGEGMFQHQTSVAHQPVVRQCGPQTGLQSPGGLQPPEFLYTHGVPRTLSPHQYHSVHGVGMVPEWSENS

Tests used:
[1] = variants of: B1; conditions: with klf13_mouse Klf13, Q9JJZ6
[2] = variants of: B1; conditions: with nkx25_mouse Nkx2-5, P42582
Chain of nkx25_mouse Nkx2-5, P42582 (P42582 whole entry): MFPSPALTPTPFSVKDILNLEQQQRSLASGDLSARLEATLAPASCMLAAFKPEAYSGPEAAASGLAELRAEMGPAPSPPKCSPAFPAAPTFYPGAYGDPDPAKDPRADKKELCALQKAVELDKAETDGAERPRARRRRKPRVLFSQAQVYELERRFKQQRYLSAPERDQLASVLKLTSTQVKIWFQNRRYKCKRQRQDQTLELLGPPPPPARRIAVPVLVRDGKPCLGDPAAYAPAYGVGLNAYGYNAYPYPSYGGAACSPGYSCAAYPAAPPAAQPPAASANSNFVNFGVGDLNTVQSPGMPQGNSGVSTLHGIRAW

Chain of klf13_mouse Klf13, Q9JJZ6 (Q9JJZ6 whole entry): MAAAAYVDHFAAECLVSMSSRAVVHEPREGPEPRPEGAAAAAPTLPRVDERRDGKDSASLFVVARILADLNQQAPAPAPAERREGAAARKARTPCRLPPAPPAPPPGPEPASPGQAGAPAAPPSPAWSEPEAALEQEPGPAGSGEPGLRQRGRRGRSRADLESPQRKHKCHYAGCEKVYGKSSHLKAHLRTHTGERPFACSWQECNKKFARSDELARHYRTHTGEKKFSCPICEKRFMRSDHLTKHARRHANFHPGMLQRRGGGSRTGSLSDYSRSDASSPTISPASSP

effect of a mutation on the interaction [1]	effect of a mutation on the interaction [2]	Variant
decreasing interaction strength	with no effect	MADTDEGFGLARTPLEPDSKDRSCDSKPESALGAPSKSPSSPQAAFTQQGMEGIKVFLHERELWLKFHEVGTEMIITKAGRRMFPSYKVKVTGLNPKTKYILLMDIVPADDHRYKFADNKGSVTGKAEPAMPGRLYVHPDSPATGAHWMRQLVSFQKLKLTNNHLDPFGHIILNSMHKYQPRLHIVKADENNGFGSKNTAFCTHVFPETAFIAVTSYQNHKITQLKIENNPFAKGFRGSDDLELHRMSRMQSKEYPVVPRSTVRHKVTSNHSPFSSETRALSTSSNLGSQYQCENGVSGPSQDLLPPPNPYPLAQEHSQIYHCTKRKDEECSSTEHPYKKPYMETSPSEEDTFYRSGYPQQQGLSTSYRTESAQRQACMYASSAPPSEPVPSLEDISCNTWPSMPSYSSCTVTTVQPMDRLPYQHFSAHFTSGPLVPRLAGMANHGSPQLGEGMFQHQTSVAHQPVVRQCGPQTGLQSPGGLQPPEFLYTHGVPRTLSPHQYHSVHGVGMVPEWSENS [W121G]
with no effect	with no effect	MADTDEGFGLARTPLEPDSKDRSCDSKPESALGAPSKSPSSPQAAFTQQGMEGIKVFLHERELWLKFHEVGTEMIITKAGRRMFPSYKVKVTGLNPKTKYILLMDIVPADDHRYKFADNKWSVTGKAEPAMPGCLYVHPDSPATGAHWMRQLVSFQKLKLTNNHLDPFGHIILNSMHKYQPRLHIVKADENNGFGSKNTAFCTHVFPETAFIAVTSYQNHKITQLKIENNPFAKGFRGSDDLELHRMSRMQSKEYPVVPRSTVRHKVTSNHSPFSSETRALSTSSNLGSQYQCENGVSGPSQDLLPPPNPYPLAQEHSQIYHCTKRKDEECSSTEHPYKKPYMETSPSEEDTFYRSGYPQQQGLSTSYRTESAQRQACMYASSAPPSEPVPSLEDISCNTWPSMPSYSSCTVTTVQPMDRLPYQHFSAHFTSGPLVPRLAGMANHGSPQLGEGMFQHQTSVAHQPVVRQCGPQTGLQSPGGLQPPEFLYTHGVPRTLSPHQYHSVHGVGMVPEWSENS [R134C]
with no effect	with no effect	MADTDEGFGLARTPLEPDSKDRSCDSKPESALGAPSKSPSSPQAAFTQQGMEGTKVFLHERELWLKFHEVGTEMIITKAGRRMFPSYKVKVTGLNPKTKYILLMDIVPADDHRYKFADNKWSVTGKAEPAMPGRLYVHPDSPATGAHWMRQLVSFQKLKLTNNHLDPFGHIILNSMHKYQPRLHIVKADENNGFGSKNTAFCTHVFPETAFIAVTSYQNHKITQLKIENNPFAKGFRGSDDLELHRMSRMQSKEYPVVPRSTVRHKVTSNHSPFSSETRALSTSSNLGSQYQCENGVSGPSQDLLPPPNPYPLAQEHSQIYHCTKRKDEECSSTEHPYKKPYMETSPSEEDTFYRSGYPQQQGLSTSYRTESAQRQACMYASSAPPSEPVPSLEDISCNTWPSMPSYSSCTVTTVQPMDRLPYQHFSAHFTSGPLVPRLAGMANHGSPQLGEGMFQHQTSVAHQPVVRQCGPQTGLQSPGGLQPPEFLYTHGVPRTLSPHQYHSVHGVGMVPEWSENS [I54T]
